{"source": "patent US20240368642A1", "about": "“COMPOSITIONS AND METHODS FOR PRODUCTION OF VALUE-ADDED CHEMICALS” (Solugen, Inc., priority 2021, published 2024)", "molecules": {"B1": {"name": "Lyophyllum shimeji: POX enzyme of Lyophyllum shimeji (protein, UniProt Q75ZP8 1-618, looked up)", "Pyranose 2-oxidase": "MSLSTEQMLRDYPRSMQINGQIPKNAIHETYGNDGVDVFIAGSGPIGATYAKLCVEAGLRVVMVEIGAADSFYAVNAEEGTAVPYVPGYHKKNEIEFQKDIDRFVNVIKGALQQVSVPVRNQNVPTLDPGAWSAPPGSSAISNGKNPHQREFENLSAEAVTRGVGGMSTHWTCSTPRIHPPMESLPGIGRPKLSNDPAEDDKEWNELYSEAERLIGTSTKEFDESIRHTLVLRSLQDAYKDRQRIFRPLPLACHRLKNAPEYVEWHSAENLFHSIYNDDKQKKLFTLLTNHRCTRLALTGGYEKKIGAAEVRNLLATRNPSSQLDSYIMAKVYVLASGAIGNPQILYNSGFSGLQVTPRNDSLIPNLGRYITEQPMAFCQIVLRQEFVDSVRDDPYGLPWWKEAVAQHIAKNPTDALPIPFRDPEPQVTTPFTEEHPWHTQIHRDAFSYGAVGPEVDSRVIVDLRWFGATDPEANNLLVFQNDVQDGYSMPQPTFRYRPSTASNVRARKMMADMCEVASNLGGYLPTSPPQFMDPGLALHLAGTTRIGFDKATTVADNNSLVWDFANLYVAGNGTIRTGFGENPTLTSMCHAIKSARSIINTLKGGTDGKNTGEHRNL"}}, "key": {"[1]": {"tested_on": "all three bacteria tested", "test": "Antimicrobial testing, statement for all three bacteria tested", "format": "cell-based", "experimental": "(§1) All three different heat incubated GDA samples were tested as antimicrobial agents with several different industrially relevant bacteria. The General Aerobic Bacteria isolated and used for this testing were identified as Pseudomonas aeruginosa and Enterobacter aggolomerans. Wild strain Sulfate Reducing Bacteria and Acid Producing Bacteria isolated from the produced fluids was also used. They were placed in a microtiter plate, where a high throughput test can be performed to determine MIC (minimum inhibitor concentration). Samples were tested at the following doses (1000, 500, 250, 125, 62.5, 31.2, 15.6, 7.8, 3.9, and 1.95ppm) and concentration was calculated based on the initial GDA concentration (15 w/v %).\n(§2) The antimicrobial testing results shown in FIG. 49 summarizes the MIC of each sample for different bacteria."}, "[2]": {"tested_on": "General Wild Strain Bacteria", "test": "Microtiter MIC study, general wild strain bacteria", "format": "cell-based, Pseudomonas aeruginosa and Enterobacter aggolomerans", "conditions": "24 hours of incubation; concentration based on initial GDA concentration", "experimental": "as §1, §2"}, "[3]": {"tested_on": "APB (Acid Producing Bacteria)", "test": "Microtiter MIC study, acid producing bacteria", "format": "cell-based, Acid Producing Bacteria isolated from the produced fluids", "conditions": "24 hours of incubation; concentration based on initial GDA concentration", "experimental": "as §1, §2"}, "[4]": {"test": "Glucarate dehydratase reaction on glucarate monitored via LCMS", "format": "biochemical", "conditions": "pH 7.5", "experimental": "(§3) A 100 μL volume was prepared containing 0.01% w/v Escherichia coli glucarate dehydratase (GlucD), 10 mM substrate (glucarate, gluconate, or glucuronate), 50 mM potassium phosphate, pH 7.5, 5 mM MgSO4, and 100 mM NaCl. The reaction was allowed to proceed for 24 hours and consumption of glucaric acid was monitored via LCMS at 0, 5mins, 20 mins, 1 hr, 2 hrs, and 24 hours. Full conversion of glucarate was observed within 20 minutes. […] The reaction is schematized in FIG. 36 and the results are graphed in Figure\nTo determine optimal enzyme loading, a 100 μL volume was prepared containing 0.001, 0.002, 0.005, or 0.01% w/v glucarate dehydratase (GlucD), 10% w/v glucarate, 50 mM potassium phosphate, pH 7.5, 5 mM MgSO4, and 100 mM NaCl. The reaction was allowed to proceed for 74 hours and formation of 4-deoxy-5-keoglucarate and consumption of glucarate was monitored via reverse phase LCMS. […] The reaction is schematized in FIG. 36 and the results are graphed in FIG. 40."}, "[5]": {"test": "Glucarate dehydratase reaction with gluconate or glucuronate as substrate", "format": "biochemical", "conditions": "0.01% w/v GlucD, 10 mM substrate, pH 7.5, 24 hours", "experimental": "as §3"}, "[6]": {"test": "Specific activity of pyranose oxidase (POX) enzymes", "format": "biochemical", "conditions": "Table 4; unit = 1 umol of substrate consumed min^−1", "excerpt": "POX is a flavin-dependent enzyme found in lignocellulose-degrading fungi that oxidizes glucose to 2-ketoglucose concomitantly with hydrogen peroxide formation. Recombinant Trametes hirsuita POX is currently used in the food industry for baking, providing some evidence that the enzyme can be produced at low cost. A unit is defined as 1 umol of substrate consumed min^−1. Based on an in-house empirical evaluation, the Irpex lacteus, Trametes multicolor, and Phanerochaete chrysosporium POXs have sufficient starting activity. This is presented graphically in FIG. 32 and Table 4."}, "[7]": {"conditions": "Table 4; previously characterized POX enzymes; cited from earlier work"}}, "data": [{"molecule": "Oc1ccc(O)c(O)c1O", "note": "(single isomer, unassigned) [1,2,3,4-tetrahydroxybenzene]", "values": [{"measurement": "antimicrobial activity (in words)", "setting": "[1]", "result": "good antimicrobial activity"}]}, {"molecule": "O=CCCCC=O", "note": "[Glutaraldehyde - 50%, Glutaraldehyde]", "values": [{"measurement": "MIC", "setting": "[2]", "result": 1000, "unit": "µg/mL"}, {"measurement": "MIC", "setting": "[3]", "result": 500, "unit": "µg/mL"}]}, {"molecule": "GlucD: Escherichia coli glucarate dehydratase", "values": [{"measurement": "time to full conversion of glucarate", "setting": "[4]; 0.005% enzyme, 10% w/v glucarate", "result": "≤ 24", "unit": "h"}, {"measurement": "time to full conversion of glucarate", "setting": "[4]; 0.01% w/v GlucD, 10 mM glucarate", "result": "≤ 0.333", "unit": "h"}, {"measurement": "reaction with gluconic or glucuronic acid as substrate", "setting": "[5]", "result": "No reaction was observed"}]}, {"molecule": "Irpex lacteus: POX enzyme of Irpex lacteus", "values": [{"measurement": "Specific Activity (in-house evaluation)", "setting": "[6]", "result": "6.0 (in-house U mg^−1"}, {"measurement": "Specific Activity (previously characterized)", "setting": "[7]", "result": "evaluation), 86 U mg^−1"}]}, {"molecule": "Trametes multicolor: POX enzyme of Trametes multicolor", "values": [{"measurement": "Specific Activity (in-house evaluation)", "setting": "[6]", "result": "6.8 (in-house U mg^−1"}]}, {"molecule": "B1", "values": [{"measurement": "Specific Activity (previously characterized)", "setting": "[7]", "result": 1.92, "unit": "U mg^−1"}]}]}
